One substance from US20130231277A1 can be followed below.

This assay deals with FGFR1c endogenously expressed by HEK293 cells transiently transfected with murine βKlotho (UniProt P11362). As to the kind of experiment: cell-based or functional assay.
Chain of FGFR1c endogenously expressed by HEK293 cells transiently transfected with murine βKlotho (P11362 22-822): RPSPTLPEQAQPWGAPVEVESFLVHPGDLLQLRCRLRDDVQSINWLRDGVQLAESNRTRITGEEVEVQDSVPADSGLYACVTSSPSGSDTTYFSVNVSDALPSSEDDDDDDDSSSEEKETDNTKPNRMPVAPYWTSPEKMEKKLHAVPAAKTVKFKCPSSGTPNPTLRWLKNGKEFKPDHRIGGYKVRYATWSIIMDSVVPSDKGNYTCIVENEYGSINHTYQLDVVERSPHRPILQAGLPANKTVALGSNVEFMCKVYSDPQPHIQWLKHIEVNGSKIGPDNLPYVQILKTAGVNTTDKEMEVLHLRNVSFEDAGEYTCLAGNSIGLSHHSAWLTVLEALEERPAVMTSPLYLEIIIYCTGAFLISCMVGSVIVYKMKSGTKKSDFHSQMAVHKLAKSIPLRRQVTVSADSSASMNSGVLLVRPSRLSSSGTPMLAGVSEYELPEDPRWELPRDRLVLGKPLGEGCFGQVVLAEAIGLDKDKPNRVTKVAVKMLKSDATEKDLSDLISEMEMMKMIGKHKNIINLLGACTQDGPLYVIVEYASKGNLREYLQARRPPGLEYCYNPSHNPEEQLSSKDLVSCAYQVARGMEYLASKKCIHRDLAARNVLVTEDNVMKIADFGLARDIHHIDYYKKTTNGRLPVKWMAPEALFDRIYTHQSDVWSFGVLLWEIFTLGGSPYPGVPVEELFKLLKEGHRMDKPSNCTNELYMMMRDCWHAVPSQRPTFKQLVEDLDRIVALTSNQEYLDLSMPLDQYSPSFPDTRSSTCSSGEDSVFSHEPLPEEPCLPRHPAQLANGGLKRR

The substance “Q104M single mutant of human FGF21 (SEQ ID NO: 152) (from UniProt Q9NSA1 29-209) (ligand)” registered an Induction of Egr1 protein expression (immunoblot, HEK293 cells co-expressing FGFR1c and βKlotho) of 30 ng/mL.
